B1: BD-604 (antibody, V domains shown)
VH: EVQLVESGGGLIQPGGSLRLSCAASGIIVSSNYMTWVRQAPGKGLEWVSVIYSGGSTFYADSVKGRFTISRDNSKNTLYLQMSSLRAEDTAVYYCARDLGPYGMDVWGQGTTVTVSS
VL: DIQLTQSPSFLSASVGDRVTITCRASQGISSDLAWYQQKPGKAPNLLIYAASTLQSGVPSRFSGSGSGTEFTLTISSLQPEDFATYYCQQLNSDLYTFGQGTKLEIK
B2: BD-503 (antibody, V domains shown)
VH: EVQLVESGGGLIQPGGSLRLSCAASGLIVSSNYMSWVRQAPGKGLEWVSVLYAGGSTDYAGSVKGRFTISRDNSKNTLYLQMNSLRAEDTAVYYCARDAAVYGIDVWGQGTTVTVSS
VL: not shown
notes: also called BD-503 NAb
B3: BD-623 (antibody, V domains shown)
VH: EVQLVESGGGLVQPGGSLRLSCAASGFTVSSNYMSWVRQAPGKGLEWVSIIYSGGSTYYADSVKGRFTISRDNSKNTLYLQMNSLRAEDTAVYYCARDYAGRVWGQGTLVTVSS
VL: QSALTQPASVSGSPGQSITISCTGTSSDVGSYNLVSWYQQRPGKAPKLILYEVTKRPSGVSNRFSGSKSGNTASLAISGLQAEDEADYYCCSYAGSSTWVFGGGTKLTVL
B4: BD-515 (antibody, V domains shown)
VH: EVQLVESGGGLVQPGGSLRLSCAASEFIVSRNYMSWVRQAPGKGLEWVSVIYSGGSTFYADSVKGRFTISRDNSKNTLYLQMNSLRAEDTGVYYCARDRGLVSDYWGQGTLVTVSS
VL: DIQMTQSPSSLSASVGDRVTITCQASQDINKYLNWYQQKPGKAPKLLIFDASHLETGVPSRFSASGSGTDFTFTISSLQPEDIATYYCHQYDNLPRTFGQGTRLEIK

Target: T1, RBD-501Y.V2 (SARS-CoV-2, B.1.351 (501Y.V2) lineage …, K417N | E484K | N501Y)
T1 construct: also called K417N/E484K/N501Y ternary mutation; B.1.351 lineage RBD
Assay: SPR
Details: both partners purified

Binder | fold reduction of binding affinity against RBD [fold]
B1 | 60
B2 | > 3
B3 | > 3
B4 | > 3
